Measured values from US6964763.

Molecular target: Recombinant baculovirus-expressed HIV-1 gp120 derived from the LAV isolate (HIV-1 isolate LAV (LAI)), P03377
Assay: competition: 125I-CD4 on immobilized gp120, 10-fold molar excess of peptide; isolate (MN or LAI) not stated

B1: CSVTCG peptide derived from TSP1 properdin-like Type 1 repeat (peptide)
peptide: CSVTCG
modifications: not checked
Question: How did the % inhibition turn out when B1 was run?
Answer: 53%
